Like-named read-outs stand apart in the source and are kept apart here.

The conditions of series [1]: in mice; cited from earlier work.
The next series has as its system ASPC-1/PSC xenografts. Description: PSC/ASPC-1 subcutaneous xenograft in athymic nude mice. The series is classed as in vivo. To be noted: TLY012 IV 10 mg/kg every other day and/or sorafenib 20 mg/kg oral everyday for 2 weeks. As for the experimental part: Six-week-old athymic nude mice were anesthetized for all procedures 5×10^6ASPC-1 cells (human pancreas adenocarcinoma ascites metastasis cell line derived from nude mouse xenografts initiated with cells from the ascites of a patient with cancer of the pancreas) were mixed with 5×10^4 PSC cells and injected in a subcutaneous in athymic nude mice. Before injection, the cells were trypsinized, counted, washed twice in 1×PBS and resuspended in 100 μl of Matrigel® matrix (Corning), and injected between the scapulae. Two weeks after the tumor transplantation, mice were injected with TLY012 via intravenous (IV) injection (10 mg/kg, every other day) for 2 weeks, while control mice received PBS. Western blot was performed on tissue extracts with antibodies against GAPDH (Santa Cruz 5 Biotechnology, sc-1694), α-SMA (Sigma, A2547), GRP78 (Santa Cruz Biotechnology, sc-13968), DR4 (Abcam, Cambridge, Mass., #13890), DR5 (Abcam, #47179), PDGF-Rb (Santa Cruz Biotechnology, sc-432), and Cl.PARP-1 (Cell Signaling Technology, #5625).
Comparative quantitative RT-PCR (qPCR) was performed in the tumor sample for fibrogenic markers. qPCR was performed in triplicate for each sample using fast SYBR Green Master Mix (Thermo Fisher Scientific) and StepOnePlus Real-Time PCR System (Thermo Fisher Scientific). The expression levels of target genes were normalized to the expression of 18s and calculated based on the comparative cycle threshold Ct method (2^−ΔΔCt).
Collagen deposition was detected with Masson's Trichrome staining and microscopy.
Mouse xenografts were generated as in Example 8. Two weeks after the tumor transplantation, mice were injected with TLY012 via intravenous (IV) injection (10 mg/kg, every other day) and/or sorafenib (20 mg/kg, oral everyday) for 2 weeks. The mice were euthanized when the tumor volume reached 1500 mm^3 and images of the excised xenografts recorded and tumor weight measured.

For series [2] the following is noted: in apes; cited from earlier work.
For series [3] the following is noted: in rodents; cited from earlier work.

With “2K-PEG-TRAIL: 2K PEG derivatized TRAIL reported by Kim et al. 2011a”, the circulating half-life in series [1] is 3.9 h.
“5K-PEG-TRAIL: 5K PEG derivatized TRAIL reported by Kim et al. 2011a”: the circulating half-life in series [1] is given as 5.3 h.
Regarding “10K-PEG-TRAIL: 10K PEG derivatized TRAIL reported by Kim et al. 2011a”, in series [1], the circulating half-life is on record as 6.2 h.
Regarding “20K-PEG-TRAIL: 20K PEG derivatized TRAIL reported by Kim et al. 2011a”, in series [1], the circulating half-life is 12.3 h.
As to “30K-PEG-TRAIL: 30K PEG derivatized TRAIL reported by Kim et al. 2011a”, in series [1], the circulating half-life is 17.7 h.
As to `CNC(=O)c1cc(Oc2ccc(NC(=O)Nc3ccc(Cl)c(C(F)(F)F)c3)cc2)ccn1` [Sorafenib, reference compound], the “tumor weight, Mean” value in the series with ASPC-1/PSC xenografts was 967 mg.
For the compound “TRAIL: Tumor necrosis factor-related apoptosis-inducing ligand, unmodified, literature values”, the half-life result in series [2] is listed as “about 30 minutes”; in series [3], “several minutes”. In addition, in series [1], the circulating half-life is 1.1 h.
